Non-standard residues stand in square brackets, D forms with d. Primed or numbered codes have the meaning given here. No end group written: not given here. *: point of attachment. DCHA″ = 3,5-dichloro-4-hydroxyaniline residue, Oc1c(Cl)cc(N*)cc1Cl; Phe(4-Cl) = N[C@@H](Cc1ccc(Cl)cc1)C(=O)O; Phe(4-I) = N[C@@H](Cc1ccc(I)cc1)C(=O)O; 2Nal = N[C@@H](Cc1ccc2ccccc2c1)C(=O)O; pNA = O=[N+]([O-])c1ccc(N*)cc1; NH(3-MeOPh) = COc1cccc(N*)c1; Nva = CCC[C@H](N)C(=O)O; Sar = CNCC(=O)O
How the values were obtained:
human pepsin I = human pepsin I (Homo sapiens, UniProt P0DJD7); assay: Digesting of the peptide substrate by human pepsin I (assay by HPLC); type: biochemical; settings: peptide 0.5 mM, tartaric acid or glycine buffer pH2.0, 37° C., released amino acid derivative (II-A) by HPLC
Chain of human pepsin I (P0DJD7 63-388): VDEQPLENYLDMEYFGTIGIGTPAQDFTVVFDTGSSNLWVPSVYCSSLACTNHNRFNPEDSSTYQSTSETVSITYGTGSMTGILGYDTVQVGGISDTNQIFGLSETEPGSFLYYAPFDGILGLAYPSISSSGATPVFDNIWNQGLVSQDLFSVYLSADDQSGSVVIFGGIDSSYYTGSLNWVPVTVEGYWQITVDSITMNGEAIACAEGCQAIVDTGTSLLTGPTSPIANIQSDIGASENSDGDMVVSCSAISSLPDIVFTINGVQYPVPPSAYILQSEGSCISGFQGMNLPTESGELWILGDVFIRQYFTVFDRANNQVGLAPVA
Description: (§1) Tartaric acid buffer or glycine buffer (pH2.0) containing each peptide (0.5 mM) prepared in Examples 1 and 2(3) etc. (Examples in Table 3 described hereinafter).
(§2) An aqueous solution of human pepsin I or human pepsin II (0.01 mg/ml)
(§3) Enzyme solution I (0.1 ml) was added to Reagent (1.0 ml). After incubation of the mixture at 37° C. for 10, 30, 60 minutes, the mixture solution (0.3 ml) was collected. To the collected solution, 2N-NaOH (0.025 ml) was added to terminate the reaction. After addition of 2N-HCl (0.025 ml) to the mixture, protein was removed by the ultrafiltration. The assaying the amino acid derivatives of the formula (II-A) [drawing 19]
(§4) which was released after digesting by human pepsin in the obtained solution was carried out by HPLC using C18 column. The ratio of digesting rate of pepsin II/pepsin I was calculated according to the result from assay by HPLC. Such assay is carried out to confirm that a substrate was digested by pepsin I or pepsin II correctly and that the amino acid derivatives of the formula (II-A) were released.

human pepsin II = target: T1, human pepsin II (Homo sapiens, UniProt P20142); assay: Digesting of the peptide substrate by human pepsin II (assay by HPLC); type: biochemical; settings: for ration of digesting rate (pepsin II/ pepsin I): calculated from the HPLC digesting rates, pepsin II over pepsin I; for pepsin II digesting rate: peptide 0.5 mM, tartaric acid or glycine buffer pH2.0, 37° C., released amino acid derivative (II-A) by HPLC
T1 sequence (P20142 60-388): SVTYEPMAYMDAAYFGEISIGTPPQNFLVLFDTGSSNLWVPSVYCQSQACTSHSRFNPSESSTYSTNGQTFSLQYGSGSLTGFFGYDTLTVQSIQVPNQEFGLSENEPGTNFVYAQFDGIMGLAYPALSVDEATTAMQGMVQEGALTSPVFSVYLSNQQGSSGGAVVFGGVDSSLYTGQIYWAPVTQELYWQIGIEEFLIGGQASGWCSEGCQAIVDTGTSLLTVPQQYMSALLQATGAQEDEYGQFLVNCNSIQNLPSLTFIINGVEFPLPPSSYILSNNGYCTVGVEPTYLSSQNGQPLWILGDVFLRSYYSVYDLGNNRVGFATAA
Description: as §1, §2, §3, §4

pepsin I digesting rate (human pepsin I) [μM/min · 1 μg Enz]	ration of digesting rate (pepsin II/ pepsin I) (human pepsin II)	pepsin II digesting rate (human pepsin II) [μM/min · 1 μg Enz]	Substance
0.0020	2065.1	4.23	2(3): Q=Pro Gln Gln Ala; 4-I-Phenyl; R4=H; (EE)m single bond; Z=p-NA (PQQA[Phe(4-I)]G-pNA; also: TFA salt)
0.0335	104.4	3.50	2(7): Q=Pro Gln Gln Ala; 4-Cl-Phenyl; R4=Me; (EE)m single bond; Z=p-NA (PQQA[Phe(4-Cl)]A-pNA; also: TFA salt)
0.0235	174.9	4.10	2(11): Q=Pro Gln Gln Ala; 2-Naphthyl; R4=n-Pr; (EE)m single bond; Z=p-NA (PQQA[2Nal][Nva]-pNA; also: TFA salt)
0.0094	410.2	3.85	2(14): Q=Ac Lys Pro Gln Gln Ala; 4-I-Phenyl; R4=Me; (EE)m single bond; Z=p-NA (Ac-KPQQA[Phe(4-I)]A-pNA; also: TFA salt)
0.0082	1094.8	8.95	2(16): Q=Asn Pro Gln Gln Ala; 4-I-Phenyl; R4=Me; (EE)m single bond; Z=p-NA (NPQQA[Phe(4-I)]A-pNA; also: TFA salt)
0.0122	757.0	9.20	2(18): Q=Ala Pro Gln Gln Ala; 4-I-Phenyl; R4=Me; (EE)m single bond; Z=p-NA (APQQA[Phe(4-I)]A-pNA; also: TFA salt)
0.0578	222.6	12.87	2(22): Q=Pro Gln Gln Asn; 2-Naphthyl; R4=Me; (EE)m single bond; Z=p-NA (PQQN[2Nal]A-pNA; not fully specified)
0.0191	308.8	5.90	2(23): Q=Pro Gln Gln Gln; 2-Naphthyl; R4=Me; (EE)m single bond; Z=p-NA (PQQQ[2Nal]A-pNA; also: TFA salt)
0.0058	2081.6	12.06	2(24): Q=Pro Gln Gln Gly; 2-Naphthyl; R4=Me; (EE)m single bond; Z=p-NA (PQQG[2Nal]A-pNA; also: TFA salt)
0.0063	889.7	5.56	2(25): Q=Pro Gln Gln Met; 2-Naphthyl; R4=Me; (EE)m single bond; Z=p-NA (PQQM[2Nal]A-pNA; also: TFA salt)
0.0632	402.3	25.41	2(33): Q=Pro Gln Glu Glu; 2-Naphthyl; R4=Me; (EE)m single bond; Z=p-NA (PQEE[2Nal]A-pNA; also: TFMSA salt)
0.0216	711.9	15.40	2(34): Q=Pro Gln Asp Glu; 2-Naphthyl; R4=Me; (EE)m single bond; Z=p-NA (PQDE[2Nal]A-pNA; also: TFMSA salt)
0.1096	193.5	21.22	2(36): Q=Pro Asn Ser Glu; 2-Naphthyl; R4=Me; (EE)m single bond; Z=p-NA (PNSE[2Nal]A-pNA; also: TFMSA salt)
0.2277	201.1	45.79	2(39): Q=Pro Met Ser Glu; 2-Naphthyl; R4=Me; (EE)m single bond; Z=p-NA (PMSE[2Nal]A-pNA; also: TFMSA salt)
0.2512	161.4	40.55	2(45): Q=Pro Thr Ser Glu; 2-Naphthyl; R4=Me; (EE)m single bond; Z=p-NA (PTSE[2Nal]A-pNA; also: TFMSA salt)
0.1631	333.8	54.43	2(51): Q=Gly Leu Ser Glu; 2-Naphthyl; R4=Me; (EE)m single bond; Z=p-NA (GLSE[2Nal]A-pNA; also: TFMSA salt)
0.0998	621.0	61.96	2(53): Q=Gln Leu Ser Glu; 2-Naphthyl; R4=Me; (EE)m single bond; Z=p-NA (QLSE[2Nal]A-pNA; also: TFMSA salt)
0.2739	176.7	48.39	2(54): Q=Lys Leu Ser Glu; 2-Naphthyl; R4=Me; (EE)m single bond; Z=p-NA (KLSE[2Nal]A-pNA; also: TFMSA salt)
0.0194	562.6	10.94	2(56): Q=Ser Leu Ser Glu; 2-Naphthyl; R4=Me; (EE)m single bond; Z=p-NA (SLSE[2Nal]A-pNA; also: TFMSA salt)
0.0284	660.9	18.78	2(57): Q=Thr Leu Ser Glu; 2-Naphthyl; R4=Me; (EE)m single bond; Z=p-NA (TLSE[2Nal]A-pNA; also: TFMSA salt)
0.1681	219.0	36.81	2(61): Q=Ac Lys Asn Leu Ser Glu; 2-Naphthyl; R4=Me; (EE)m single bond; Z=p-NA (Ac-KNLSE[2Nal]A-pNA; also: TFMSA salt)
0.1763	169.2	29.84	2(63): Q=Pro Asn Asn Leu Ser Glu; 2-Naphthyl; R4=Me; (EE)m single bond; Z=p-NA (PNNLSE[2Nal]A-pNA; also: TFMSA salt)
2.6240	20.74	54.41	2(78): Q=Leu Ser Glu; 2-Naphthyl; R4=Me; (EE)m=Leu; Z=p-NA (LSE[2Nal]AL-pNA; also: TFMSA salt)
0.1500	105.48	15.77	2(80): Q=Leu Ser Glu; 2-Naphthyl; R4=Me; (EE)m=Gly; Z=p-NA (LSE[2Nal]AG-pNA; also: TFMSA salt)
2.3660	29.87	70.66	2(83): Q=Sar Leu Ser Glu; 2-Naphthyl; R4=Me; (EE)m=Ala; Z=m-ASD ([Sar]LSE[2Nal]AA-{NH(3-MeOPh)}; also: TFMSA salt)
0.3128	158.4	49.56	Nα-Me-GlyLeuSerGluAla(2-Naph)Ala-pNA.TFMSA ([Sar]LSE[2Nal]A-pNA; also: TFMSA salt) [Example 2(70)]
0.2767	119.5	33.07	Nα-Me-GlySerGlyAla(2-Naph)AlaAla-DCHA.TFMSA ([Sar]SG[2Nal]AA-{DCHA″}; also: TFMSA salt) [Example 2(84)]

Substance	pepsin I digesting rate (human pepsin I) [μM/min · 1 μg Enz]	ration of digesting rate (pepsin II/ pepsin I) (human pepsin II)	pepsin II digesting rate (human pepsin II) [μM/min · 1 μg Enz]
ProLeuSerGluAla(2-Naph)Ala-pNA (PLSE[2Nal]A-pNA) [Example 1]	0.2795	198.2	55.40

Reference: US6441131B1, “Peptides, method for assaying human pepsinogen II or human pepsin II, and assaying kit” (Ono Pharmaceutical Co., Ltd., priority 1997, dated 2002)
